In publication PMC3592467:

Target: CDC5L–GFP (UniProt Q99459)
Assay: affinity purification with mass spectrometry

Sequence of CDC5L–GFP (Q99459 whole entry): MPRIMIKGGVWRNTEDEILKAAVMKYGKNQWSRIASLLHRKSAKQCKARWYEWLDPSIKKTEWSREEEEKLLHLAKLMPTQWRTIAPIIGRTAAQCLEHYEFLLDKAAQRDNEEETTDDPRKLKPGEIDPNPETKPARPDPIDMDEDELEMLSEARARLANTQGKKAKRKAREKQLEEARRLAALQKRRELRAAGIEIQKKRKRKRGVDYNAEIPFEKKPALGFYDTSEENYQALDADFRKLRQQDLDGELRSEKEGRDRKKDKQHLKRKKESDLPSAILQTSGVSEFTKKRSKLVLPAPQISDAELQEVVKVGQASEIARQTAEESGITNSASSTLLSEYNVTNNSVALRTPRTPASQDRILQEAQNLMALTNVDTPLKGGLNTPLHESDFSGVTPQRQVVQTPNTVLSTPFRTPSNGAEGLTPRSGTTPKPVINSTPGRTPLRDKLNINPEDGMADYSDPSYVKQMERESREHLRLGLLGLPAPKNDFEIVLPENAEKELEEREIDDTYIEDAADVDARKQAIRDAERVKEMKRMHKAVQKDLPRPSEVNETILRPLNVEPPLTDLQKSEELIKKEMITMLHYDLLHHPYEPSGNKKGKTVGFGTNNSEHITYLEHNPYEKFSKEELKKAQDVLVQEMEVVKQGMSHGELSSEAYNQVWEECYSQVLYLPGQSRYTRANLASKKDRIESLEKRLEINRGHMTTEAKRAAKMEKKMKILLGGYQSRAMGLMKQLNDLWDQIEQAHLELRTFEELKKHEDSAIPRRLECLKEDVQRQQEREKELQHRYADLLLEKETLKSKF
Sequence of HSP70 (P11142 whole entry): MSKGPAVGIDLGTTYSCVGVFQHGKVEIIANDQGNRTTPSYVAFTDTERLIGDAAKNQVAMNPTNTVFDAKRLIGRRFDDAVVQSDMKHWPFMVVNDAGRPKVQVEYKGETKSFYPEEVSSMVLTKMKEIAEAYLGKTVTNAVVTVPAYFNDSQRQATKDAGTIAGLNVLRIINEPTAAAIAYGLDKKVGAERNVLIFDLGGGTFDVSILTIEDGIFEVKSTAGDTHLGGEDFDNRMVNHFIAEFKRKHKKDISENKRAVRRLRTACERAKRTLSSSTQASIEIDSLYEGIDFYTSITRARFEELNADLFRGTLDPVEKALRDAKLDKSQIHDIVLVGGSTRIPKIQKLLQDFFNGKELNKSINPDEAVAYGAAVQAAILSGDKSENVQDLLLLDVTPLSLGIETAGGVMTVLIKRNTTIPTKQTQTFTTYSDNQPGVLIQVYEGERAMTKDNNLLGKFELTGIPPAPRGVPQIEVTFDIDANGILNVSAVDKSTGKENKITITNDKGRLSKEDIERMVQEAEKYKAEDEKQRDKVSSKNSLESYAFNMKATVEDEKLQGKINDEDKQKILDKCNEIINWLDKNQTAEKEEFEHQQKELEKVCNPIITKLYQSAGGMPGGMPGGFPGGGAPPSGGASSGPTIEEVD

stoichiometry N (relative to CDC5L): 0.2 | stoichiometry with CDC5L as a dimer (CDC5L 2) (per CDC5L dimer): 0.4
Substance: HSP70 (from UniProt P11142 1-646) (natural protein)
